Laboratory results: US20230135471A1, “UBIQUITIN VARIANTS WITH IMPROVED AFFINITY FOR 53BP1” (Integrated DNA Technologies, Inc., priority 2021, published 2023)

Target: 53BP1 fragment (a.a. 1221-1718) fused to an adenylate cyclase fragment (two-hybrid) (UniProt Q12888)
Experiment: cell-based or functional assay

Substance | Experiment 1 Average Enrichment | Experiment 1 Rep 1 Enrichment | Experiment 1 Rep 2 Enrichment | Experiment 2 Average Enrichment | Experiment 2 Rep 1 Enrichment | Experiment 2 Rep 2 Enrichment | Percent GFP Positive Rep 1 | Percent GFP Positive Rep 2 | Percent GFP Positive Rep 3
i53 + E18F two-hybrid fusion (designed binder) | 0.51 log2 | 0.09 log2 | 0.93 log2 | 0.54 log2 | 0.22 log2 | 0.87 log2 | – | – | –
i53 + E18H two-hybrid fusion (designed binder) | 1.17 log2 | 0.39 log2 | 1.96 log2 | 0.07 log2 | 0.24 log2 | -0.11 log2 | – | – | –
i53 + E18L two-hybrid fusion (designed binder) | 0.75 log2 | 0.75 log2 | 0.76 log2 | 0.66 log2 | 0.62 log2 | 0.71 log2 | – | – | –
i53 + E18N two-hybrid fusion (designed binder) | -0.45 log2 | 0.34 log2 | -1.23 log2 | 0.1 log2 | -0.64 log2 | 0.85 log2 | – | – | –
i53 + E18Q two-hybrid fusion (designed binder) | 0.72 log2 | 0.61 log2 | 0.83 log2 | 0.03 log2 | 0.02 log2 | 0.05 log2 | – | – | –
i53 + E18R two-hybrid fusion (designed binder) | -0.75 log2 | -1.22 log2 | -0.28 log2 | 0.06 log2 | -0.24 log2 | 0.36 log2 | – | – | –
i53 + E18S two-hybrid fusion (designed binder) | 0.48 log2 | 0.47 log2 | 0.49 log2 | 0.33 log2 | -0.01 log2 | 0.67 log2 | – | – | –
i53 + E18T two-hybrid fusion (designed binder) | -0.27 log2 | -0.33 log2 | -0.21 log2 | 0.28 log2 | 0.23 log2 | 0.34 log2 | – | – | –
i53 + E18W two-hybrid fusion (designed binder) | 0.18 log2 | 0.06 log2 | 0.31 log2 | 0.75 log2 | 0.8 log2 | 0.69 log2 | – | – | –
i53 + E18Y two-hybrid fusion (designed binder) | 0.72 log2 | 1.28 log2 | 0.17 log2 | 0.82 log2 | 1.2 log2 | 0.44 log2 | – | – | –
i53 + E34T two-hybrid fusion (designed binder) | 0.12 log2 | 2.15 log2 | -1.91 log2 | -3.54 log2 | -3.26 log2 | -3.83 log2 | – | – | –
i53 + E51D two-hybrid fusion (designed binder) | 0.52 log2 | 0.31 log2 | 0.72 log2 | 0.61 log2 | 0.29 log2 | 0.92 log2 | – | – | –
i53 + H68E two-hybrid fusion (designed binder) | -1.08 log2 | -0.69 log2 | -1.48 log2 | 0.1 log2 | 0.33 log2 | -0.13 log2 | – | – | –
i53 + H68M two-hybrid fusion (designed binder) | 2.28 log2 | 2.53 log2 | 2.04 log2 | 1.28 log2 | 0.99 log2 | 1.58 log2 | 28.6% | 23.5% | 28.3%
i53 + H68Q two-hybrid fusion (designed binder) | 0.07 log2 | 0.44 log2 | -0.3 log2 | -0.5 log2 | -0.62 log2 | -0.38 log2 | – | – | –
i53 + I13F two-hybrid fusion (designed binder) | 0.53 log2 | 1.04 log2 | 0.03 log2 | -0.09 log2 | -0.26 log2 | 0.07 log2 | – | – | –
i53 + I13H two-hybrid fusion (designed binder) | 0.5 log2 | -0.27 log2 | 1.28 log2 | -1.6 log2 | -2.48 log2 | -0.71 log2 | – | – | –
i53 + I13P two-hybrid fusion (designed binder) | 0.58 log2 | 2.15 log2 | -0.99 log2 | -4.23 log2 | -3.84 log2 | -4.62 log2 | – | – | –
i53 + I61L two-hybrid fusion (designed binder) | 1.06 log2 | 1.1 log2 | 1.02 log2 | 0.67 log2 | 0.75 log2 | 0.59 log2 | 15.9% | 17.6% | 17.2%
i53 + K29H two-hybrid fusion (designed binder) | 0.17 log2 | 0.02 log2 | 0.32 log2 | -2.73 log2 | -3.26 log2 | -2.2 log2 | – | – | –
i53 + K29L two-hybrid fusion (designed binder) | 0.11 log2 | 0.15 log2 | 0.07 log2 | 0.26 log2 | 0.21 log2 | 0.3 log2 | – | – | –
i53 + K29M two-hybrid fusion (designed binder) | 1.6 log2 | 1.72 log2 | 1.48 log2 | 0.9 log2 | 1.23 log2 | 0.57 log2 | 23.9% | 16.5% | 17.8%
i53 + K29Q two-hybrid fusion (designed binder) | 0.05 log2 | -0.21 log2 | 0.31 log2 | -0.04 log2 | -0.26 log2 | 0.17 log2 | – | – | –
i53 + K29R two-hybrid fusion (designed binder) | -0.01 log2 | -0.07 log2 | 0.05 log2 | 0.28 log2 | 0.45 log2 | 0.1 log2 | – | – | –
i53 + K33C two-hybrid fusion (designed binder) | 1.96 log2 | 2.85 log2 | 1.07 log2 | 0.77 log2 | 0.55 log2 | 0.99 log2 | – | – | –
